Measured values as given in patent US20090035281A1, “COMBINATION OF INTERLEUKIN-6 ANTAGONISTS AND ANTIPROLIFERATIVE DRUGS” (Universita Degli Studi "Magna Graecia" Di Catanzaro, priority 2005, published 2009).

Experiments:
[1] = test system: human IL-6-dependent multiple myeloma (MM) cell line, INA-6; test: Cell proliferation assay ([3H]-thymidine incorporation), INA-6 cells with exogenous IL-6; type: cell-based; details: INA-6, exogenous IL-6 present, 3 days' exposure
Description: The formation, characterisation and in-vitro culturing of the IL-6-dependent human MM cell line INA-6 is described in Burger, R., et al.; Hematol. J., 2001; 2:42-53. The cells were maintained in RPMI 1640 culture medium (GIBCO, Grand Island, N.Y.) added with 10% foetal calf serum (FCS, Hyclone, Logan, Utah), L-glutamine 2 mM (GIBCO), 100 μg/ml of streptomycin (GIBCO) and 100 U/ml of penicillin (GIBCO) in the presence of 2.5 ng/ml of IL-6 at 37° C. in a 5% CO2 atmosphere
(§1) Cell proliferation was measured by incorporation of [^3H]-thymidine (NEN Life Science Products, Boston, Mass.). Cells (2×10^4 cells/well) were incubated on 96-well culture plates in the presence or absence of 70-80% confluent BMSC at 37° C. with or without the study substance (in wells in triplicate) for 72 h. [^3H]-thymidine (0.5 μCi) was then added to each well for at least 8 h. Cells were collected on glass filters with an automatic cell collector (Cambridge Technology, Cambridge, Mass.) and counted using a Micro-Beta Trilux counter (Wallac, Gaithersburgh, Md.).
(§2) IL-6 has been identified as one of the main factors in the growth and survival of MM cells. […] INA-6 cells were seeded and cultured on 96-well plates in the presence of exogenous IL-6, and then, after 3 days' exposure of the cells to the drugs, cell proliferation and apoptosis were determined.

[2] = test system: INA-6 MM cells in human foetal bone implant; test: SCID-hu INA-6 mouse model of human MM, tumour growth by serum shuIL-6R; type: in vivo; details: for reduction in serum shuIL-6R (marker of tumour growth) vs control group: s.c., SANT-7 3.3 mg/kg or Dex 1 mg/kg alone, 5 consecutive days; for tolerability in SCID-hu mice: treatment with single agent
Description: Male SCID C-17 mice aged from six to eight weeks (Taconic Germany, N.Y.) were housed and monitored in our Animal Research Facility. All the experimental procedures and protocols were approved by the Institutional Committee on the Treatment and Use of Animals. Human foetal femur transplants were implanted in SCID (SCID-hu) mice, as described in Urashima, M., et al.; Blood, 1997; 90(2): 754-65; Tassone, P., et al.; Blood, 2004. Four weeks after implantation, 2.5×10^6 INA-6 MM cells in 50 μl of PBS were injected into the foetal bone implant in the SCID-hu hosts. Serum levels of the interleukin-6 soluble receptor (shuIL-6R) (R & D Systems Inc., Minneapolis, Minn.) were monitored in the mice.
(§3) In these mice serum shuIL-6R was measured as a marker of tumour growth and disease severity, since it is released by the INA-6 cells. First, the pharmacokinetics of SANT-7 was determined.

[3] = test system: INA-6 cells adhering to bone marrow stromal cells (BMSC); test: Cell proliferation of INA-6 cells adhering to BMSC, no exogenous IL-6; type: cell-based, human; details: 70-80% confluent BMSC, no exogenous IL-6, 3 days after treatment
Description: as §1
Since the paracrine production of IL-6 occurs when the MM cells adhere to BMSC (Uchiyama, H., et al.; Blood, 1993; 82:3712-3720), the supporting effect of BMSC for the in-vitro growth of INA-6 cells after exposure to the drugs was evaluated. The INA-6 cells were seeded on 70-80% confluent BMSC, in the absence of exogenous IL-6, and the cell proliferation was established 3 days after the treatment.

[4] = test system: human IL-6-dependent multiple myeloma (MM) cell line, INA-6; test: Detection of apoptosis (annexin V-FITC / propidium iodide flow cytometry), INA-6 cells with exogenous IL-6; type: cell-based; details: INA-6, exogenous IL-6 present, 3 days' exposure
Description: To detect the induction of cell death by apoptosis, double staining was performed with annexin V labelled with FITC and propidium iodide (PI). After treating 1×10^6 tumour cell for 48 h, the cells were washed with PBS and resuspended in 100 μl of HEPES buffer containing annexin V-FITC and propidium iodide (PI) (Annexin V-FLUOS staining kit; Roche Diagnostic, Indianapolis, Ind.). After 15 minutes' incubation at room temperature, the cells were analysed using a Coulter Epics XL flow cytometer to detect the presence of an apoptotic cell population staining positive for annexin V-FITC and negative for PI.
as §2, with “cells. INA-6 is a human myeloma cell line that requires exogenous IL-6 for growth in vitro (FIG. 1A).” for “cells.”

[5] = test system: human CD34+ Haematopoietic Progenitor Cells (HPC); test: Liquid culture of CD34+ HPC, flow cytometric cell cycle (DNA content, PI) analysis; type: cell-based; details: 6 days liquid culture with haemopoietins + IL-6
Description: (§4) Peripheral blood mobilised CD34^+ HPC were isolated from leukapheresis products of patients with haematopoietic and non-haematopoietic tumours, treated with high-dose chemotherapy and G-CSF or GM-CSF. Peripheral blood mononuclear cells were obtained by centrifugation across a Ficoll density gradient (Seromed, Berlin, Germany), washed and submitted to positive selection using the CD34 Progenitor Cell Isolation Kit (Miltenyi Biotech, Bergish Gladbach, Germany). In brief, CD34^+ HPC were magnetically labelled indirectly using a primary monoclonal antibody conjugated with a hapten and an anti-hapten antibody coupled with MACS MicroBeads (Miltenyi). The labelled cells were subsequently enriched with the MiniMACS magnetic field.

purified CD34+ HPC = test: Clonogenic progenitor assays in methylcellulose; type: cell-based, human; details: for CFC-GM: SANT-7 200 ng/ml, Dex 10^-5 M; for Total: total colonies
Description: as §4
The clonogenic progenitor assays were carried out in methylcellulose as described previously with minor modifications. In brief, 1×10^3 freshly isolated CD34^+ HCP were seeded in IMDM (GIBCO) containing 1% methylcellulose, 30% foetal calf serum (Hyclone), 1% bovin serum albumin (Sigma), L-glutamine 2 mM (GIBCO) and 2β-mercaptoethanol 10^−4 M (Stemcell Technologies Inc., Vancouver, Canada). To induce granulomonocytic or erythroid differentiation, the cells were stimulated with IL-3 (50 ng/ml), GM-CSF (100 ng/ml), G-CSF (100 ng/ml) or IL-3 (50 ng/ml), GM-CSF (100 ng/ml), SCF (50 ng/ml) ed Epo (3 U/ml), respectively. […] 1 ml aliquots were plated in triplicate on 35 mm culture plates (Falcon) at 37° C. in a 5% CO2 humidified atmosphere. After 14 days' culture, the granulomonocytic colonies (CFC-GM) and the erythroid colonies (BFU-E) were counted by examining the cultures under an inverted microscope.

[6] = In-vivo kinetics of SANT-7 after s.c. injection; parameters: species or system SCID-hu mouse
Description: A) Sant-7 (3.3 mg/kg) was injected s.c. into a SCID-hu mouse and its kinetics was evaluated with serial determinations of IL-6 in serum. B) Tumour growth in SCID-hu mice implanted with INA-6 cells was monitored with serial measurements of shuIL-6R. […] P values were obtained by comparison between the control groups and the groups treated with the combination. The data were expressed as mean±SE.
as §3

[7] = single s.c. injection 3.3 mg/kg

With C[C@@H]1C[C@H]2[C@@H]3CCC4=CC(=O)C=C[C@]4(C)[C@@]3(F)[C@@H](O)C[C@]2(C)[C@@]1(O)C(=O)CO [Dex, dexamethasone, reference compound] the “growth inhibition of MM cells” value [1] was “neither modified cell proliferation”, the “reduction in serum shuIL-6R (marker of tumour growth) vs control group” value [2] was “did not induce any significant reduction” and the “tolerability in SCID-hu mice” value [2] was “well tolerated”. The “growth inhibition of INA-6 cells adhering to BMSC” value [3] was “activity was inhibited” and the “death by apoptosis in MM cells” value [4] was “nor induced apoptosis”.

B1: SANT-7: superantagonist of the IL-6 receptor, molecular variant of IL-6 totally incapable of binding gp130, sequence SEQ ID No. 4 (protein, listed as Homo sapiens)
chain: PVPPGEDSKDVAAPHRQPLTSSERIDKQIRDILDFISALRKETCNKSNMCESSKEADAFWNLNLPKMAEKDGCFYKGFNEETCLVKIITGLLEFEVYLEYLQNRFESSEEQARAVQMRTKDLIQFLQKKAKNLDAITTPDPTTNASLLTKLQAQNQWLQDMTTHLILRSFKEFLIRSLRALRAM
For B1, the “growth inhibition of MM cells” value [1] was “high rates of growth inhibition”, the “apoptosis rate of CD34+ cells” value [5] was “No significant apoptosis rate” and the “effect on cell proliferation (cell cycle) of CD34+ cells” value [5] was “does not significantly affect cell proliferation”. For the same molecule, the “effect on generation of CFC-GM and BFU-E in response to haemopoietins” value (purified CD34+ HPC; CD34+ HPC, clonogenic assays) was “does not interfere appreciably”, the CFC-GM (purified CD34+ HPC; colonies, IL3 + GM + G + IL6 (granulomonocytic differentiation), 1 × 10^3 cells/plate, day 14, mean ± SD) was 73 ± 2 and the CFC-GM (purified CD34+ HPC; colonies, IL3 + GM + SCF + Epo + IL6 (erythroid differentiation), 1 × 10^3 cells/plate, day 14, mean ± SD) was 21 ± 1. The BFU-E (purified CD34+ HPC; colonies, IL3 + GM + SCF + Epo + IL6, 1 × 10^3 cells/plate, day 14, mean ± SD) was 50 ± 2, the Total (purified CD34+ HPC; IL3 + GM + G + IL6, 1 × 10^3 cells/plate, day 14, mean ± SD) was 73 ± 2 and the Total (purified CD34+ HPC; IL3 + GM + SCF + Epo + IL6, 1 × 10^3 cells/plate, day 14, mean ± SD) was 71 ± 1. The “reduction in serum shuIL-6R (marker of tumour growth) vs control group” value [2] was “did not induce any significant reduction”, the “tolerability in SCID-hu mice” value [2] was “well tolerated” and the “growth inhibition of INA-6 cells adhering to BMSC” value [3] was “reduced the efficacy of the growth inhibition”. The “time drug remains in circulation after the injection” value [6, 7] was 4 h, the “time to SANT-7 serum peak” value [6, 7] was 30 min and the clearance ([6]; subcutaneous administration) was “very rapid clearance”. The “death by apoptosis in MM cells” value [4] was “high rates”.
